Data published in patent US20230265179A1 (TWIST BIOSCIENCE, published 2023).

T1: IL1RL2 (UniProt Q9HB29 20-335, limits assumed)
T1 construct: Soluble analyte of the SPR runs
T1 sequence (looked up): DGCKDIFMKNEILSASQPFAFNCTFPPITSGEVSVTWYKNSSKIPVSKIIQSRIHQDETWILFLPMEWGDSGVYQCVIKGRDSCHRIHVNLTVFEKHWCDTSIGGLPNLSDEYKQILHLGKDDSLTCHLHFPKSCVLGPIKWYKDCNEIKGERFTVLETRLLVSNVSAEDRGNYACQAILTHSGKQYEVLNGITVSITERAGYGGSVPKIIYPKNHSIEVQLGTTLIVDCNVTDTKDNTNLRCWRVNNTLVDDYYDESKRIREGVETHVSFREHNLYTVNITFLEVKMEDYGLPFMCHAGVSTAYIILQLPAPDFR

T2: IL1RL2 over-expressed on Expi293 cells (UniProt Q9HB29 20-575, limits assumed)
T2 construct: whole, on cells; Target of the flow cytometry assay; MFI ratio is over-expressing cells over parent cells
T2 sequence (looked up): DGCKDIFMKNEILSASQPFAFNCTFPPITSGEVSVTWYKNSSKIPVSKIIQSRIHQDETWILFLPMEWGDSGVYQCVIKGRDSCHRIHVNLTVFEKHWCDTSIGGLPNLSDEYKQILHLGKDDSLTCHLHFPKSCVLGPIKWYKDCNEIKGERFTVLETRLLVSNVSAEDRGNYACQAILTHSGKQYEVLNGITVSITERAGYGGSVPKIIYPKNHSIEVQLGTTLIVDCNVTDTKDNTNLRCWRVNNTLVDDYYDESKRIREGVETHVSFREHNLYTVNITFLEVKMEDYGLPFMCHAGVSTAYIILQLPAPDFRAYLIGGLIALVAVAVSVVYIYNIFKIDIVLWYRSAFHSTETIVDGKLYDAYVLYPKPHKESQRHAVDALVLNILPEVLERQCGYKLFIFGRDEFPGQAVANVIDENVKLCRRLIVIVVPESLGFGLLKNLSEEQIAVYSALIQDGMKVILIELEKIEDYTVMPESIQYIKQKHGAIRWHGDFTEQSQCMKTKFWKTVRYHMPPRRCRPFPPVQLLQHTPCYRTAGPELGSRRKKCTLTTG

T3: CD40L (UniProt P29965 1-261, limits assumed)
T3 construct: whole, on cells; also called cytokine over-expressing Expi293 cells (CD40L)
T3 sequence (looked up): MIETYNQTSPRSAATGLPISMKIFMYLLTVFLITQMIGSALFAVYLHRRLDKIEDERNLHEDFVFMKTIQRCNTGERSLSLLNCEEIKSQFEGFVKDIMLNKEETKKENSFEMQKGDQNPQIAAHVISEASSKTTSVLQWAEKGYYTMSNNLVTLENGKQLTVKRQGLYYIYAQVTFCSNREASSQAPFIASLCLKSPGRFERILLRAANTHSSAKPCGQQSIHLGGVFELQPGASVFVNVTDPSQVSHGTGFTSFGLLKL


Columns and labels:
[1] = molecular target: T1, IL1RL2; assay: SPR (Carterra LSA), antibody immobilised, 1:1 model
Description: SPR experiments were performed on a Carterra LSA SPR biosensor equipped with a HC30M chip at 25° C. in HBS-TE. Antibodies were diluted to 10 μg/mL and amine-coupled to the sensor chip by EDC/NHS activation, followed by ethanolamine HCl quenching. Increasing concentrations of analyte were flowed over the sensor chip in HBS-TE with 0.5 mg/mL BSA with 5-minute association and 15-minute dissociation. Following each injection cycle the surface was regenerated with 2× 30-second injections of IgG elution buffer (Thermo). Data were analyzed in Carterra's Kinetics Tool software with 1:1 binding model.

[2] = molecular target: T2, IL1RL2 over-expressed on Expi293 cells; assay: flow cytometry, over-expressing Expi293 vs parent cells, 100 nM antibody;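 note: ratio is mean fluorescence intensity on over-expressing Expi293 cells divided by that measured on parental Expi293 cells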
Description: (§1) All incubations and washes were in buffer containing PBS+1% BSA. MFI Ratio is defined by the mean fluorescence intensity (MFI) of the cytokine over-expressing Expi293 cell over the Expi293 parent cell. […] EC50 was calculated in GraphPad Prism.

[3] = molecular target: T3, CD40L; assay: flow cytometry, 100 nM IgG, CD40L over-expressing Expi293 cells over parent Expi293 cells
Description: as §1

[4] = molecular target: T4, TSLP on over-expressing Expi293 cells (UniProt Q969D9 29-159, limits assumed); assay: flow cytometry, 100 nM, TSLP over-expressing Expi293 over parent cells
T4 construct: whole, on cells; Target of the flow cytometry assay; also called cytokine over-expressing Expi293 cells
Description: as §1

Row | Binder | Kd [1] | koff [1] | kon [1] | 100 nM FACS (MFI Ratio) [2] | 100 nM FACS (MFI Ratio) [3] | further results
1 | IL1RL2-31 (VHH, VHH-Fc based on IgG2 Fc) VHH: EVQLVESGGGLVQPGGSLRLSCAASGRTFDSYDMGWFRQAPGKERELVASITFGGVTNYADSVKGRFTISADNSKNTAYLQMNSLKPEDTAVYYCADVNGDWGQGTLVTVSS | 3.82 nM | 0.000318 s⁻¹ | 83300 M⁻¹ s⁻¹ | 7.16 | – | –
2 | CD40L-382 (antibody, V domains shown) VH: EVQLLESGGGLVQPGGSLRLSCAASGFGFSSYAMSWVRQAPGKGLEWVSAISGGGGSIYYADSVKGRFTISRDNSKNTLYLQMNSLRAEDTAVYYCATDYGDYDRLNFDLWGQGTLVTVSS VL: DIQMTQSPSSLSASVGDRVTITCRASQSIGTFLNWYQQKPGKAPKLLIYGTSNLQSGVPSRFSGSGSGTDFTLTISSLQPEDFATYYCQQGYRTPLTFGGGTKVEIK | – | – | – | – | 10.7 MFI ratio | –
3 | CD40L-414 (antibody, V domains shown) VH: EVQLLESGGGLVQPGGSLRLSCAASGFTFSNYAMSWVRQAPGKGLEWVSAITGSGSTTYYADSVKGRFTISRDNSKNTLYLQMNSLRAEDTAVYYCATDYGDYDRLNFDLWGQGTLVTVSS VL: DIQMTQSPSSLSASVGDRVTITCRASQSIGTFLNWYQQKPGKAPKLLIYGTSNLQSGVPSRFSGSGSGTDFTLTISSLQPEDFATYYCQQGYRTPLTFGGGTKVEIK | – | – | – | – | 11.2 MFI ratio | –
4 | CD40L-434 (antibody, V domains shown) VH: EVQLLESGGGLVQPGGSLRLSCAASGFGFSSYAMSWVRQAPGKGLEWVSAISGGGGSIYYADSVKGRFTISRDNSKNTLYLQMNSLRAEDTAVYYCARHGGYYYYYMDVWGQGTLVTVSS VL: DIQMTQSPSSLSASVGDRVTITCRASQSVSRFLNWYQQKPGKAPKLLIYAASTLQPGVPSRFSGSGSGTDFTLTISSLQPEDFATYYCQQSYETPLTFGGGTKVEIK | – | – | – | – | 6.1 MFI ratio | –
5 | TSLP-33 (VHH, VHH-Fc (IgG2 Fc); not shown: IgG2 Fc of the VHH-Fc format) VHH: EVQLVESGGGLVQPGGSLRLSCAASGFSLDYYGMGWFRQAPGKEREFVAAIHWNGDSTLYADSVKGRFTIIADNSKNTAYLQMNSLKPEDTAVYYCARGFSGWFPFDYWGQGTLVTVSS | – | – | – | – | – | 100 nM (MFI Ratio) [4]: 21 MFI ratio
6 | TSLP-28 (VHH, VHH-Fc (IgG2 Fc); not shown: IgG2 Fc of the VHH-Fc format) VHH: EVQLVESGGGLVQPGGSLRLSCAASGFTFDDYEMGWFRQAPGKEREFVGSIGCDGSTLYADSVKGRFTISADNSKNTAYLQMNSLKPEDTAVYYCTTDCDDHCGWGQGTLVTVSS | – | – | – | – | – | 100 nM (MFI Ratio) [4]: 0.7 MFI ratio
7 | TSLP-31 (VHH, VHH-Fc (IgG2 Fc); not shown: IgG2 Fc of the VHH-Fc format) VHH: EVQLVESGGGLVQPGGSLRLSCAASGNIFANNIMGWFRQAPGKERELVSAIFSDGSTYYADSVKGRFTISADNSKNTAYLQMNSLKPEDTAVYYCARDDIVGAWSLDCWGQGPLMTVSS | – | – | – | – | – | 100 nM (MFI Ratio) [4]: 18.4 MFI ratio
8 | TSLP-34 (VHH, VHH-Fc (IgG2 Fc); not shown: IgG2 Fc of the VHH-Fc format) VHH: EVQLVESGGGLVQPGGSLRLSCAASGHIFANNIMGWFRQAPGKERELVSAIFSDGSTYYADSVKGRFTISADNSKNTAYLQMNSLKPEDTAVYYCARDAIVGAASLDYWGQGTLVTVSS | – | – | – | – | – | 100 nM (MFI Ratio) [4]: 16.5 MFI ratio
9 | IL1RL2-11 (VHH, VHH-Fc based on IgG2 Fc) VHH: EVQLVESGGGLVQPGGSLRLSCAASGRTFSRYAMGWFRQAPGKEREFVAAINWSGARTYYADSVKGRFTISADNSKNTAYLQMNSLKPEDTAVYYCAVSQPLNYYTYYDARRYDWGQGTLVTVSS | 8.48 nM | 0.000342 s⁻¹ | 40400 M⁻¹ s⁻¹ | 22.4 | – | –
10 | IL1RL2-29 (VHH, VHH-Fc based on IgG2 Fc) VHH: EVQLVESGGGLVQPGGSLRLSCAASGGTFSAYTMGWFRQAPGKEREFVAAISWSGGSTYYADSVKGRFTISADNSKNTAYLQMNSLKPEDTAVYYCAVSQPLNYYTYYDARRYDWGQGTLVTVSS | 10.5 nM | 0.000279 s⁻¹ | 26500 M⁻¹ s⁻¹ | 5.46 | – | –
11 | IL1RL2-24 (VHH, VHH-Fc based on IgG2 Fc) VHH: EVQLVESGGGLVQPGGSLRLSCAASGRTFSTYDMGWFRQAPGKERELVASIVWIGGRTYYADSVKGRFTISADNSKNTAYLQMNSLKPEDTAVYYCADVNGDWGQGTLVTVSS | ≤ 0.103 nM | ≤ 1e-05 s⁻¹ | 97200 M⁻¹ s⁻¹ | 18.1 | – | –
12 | TSLP-27 (VHH, VHH-Fc (IgG2 Fc); not shown: IgG2 Fc of the VHH-Fc format) VHH: EVQLVESGGGLVQPGGSLRLSCAASGSTFSDRAMGWFRQAPGKERELVSAIFSDGSTLYADSVKGRFTISADNSKNTAYLQMNSLKPEDTAVYYCASDVGMDVWGQGTLVTVSS | – | – | – | – | – | 100 nM (MFI Ratio) [4]: 0.6 MFI ratio

Now from value to binder, other results behind:

Row | Kd [1] | koff [1] | kon [1] | 100 nM FACS (MFI Ratio) [2] | 100 nM FACS (MFI Ratio) [3] | Binder | further results
13 | 10.2 nM | 0.000784 s⁻¹ | 76900 M⁻¹ s⁻¹ | 9.22 | – | IL1RL2-2 (VHH, VHH-Fc based on IgG2 Fc) VHH: EVQLVESGGGLVQPGGSLRLSCAASGFTRSYYTMGWFRQAPGKERELVASITRGGGTTYADSVKGRFTISADNSKNTAYLQMNSLKPEDTAVYYCADVNGDWGQGTLVTVSS | –
14 | – | – | – | – | 45.1 MFI ratio | CD40L-398 (antibody, V domains shown) VH: EVQLLESGGGLVQPGGSLRLSCAASGFTFSNYAMSWVRQAPGKGLEWVSAITGSGSTTYYADSVKGRFTISRDNSKNTLYLQMNSLRAEDTAVYYCARAHDYDSMLMDYWGQGTLVTVSS VL: DIQMTQSPFSLSASVGDRVTITCRASQNILTYLNWYQQKPGKAPKLLIYGASTLRSGVPSRFSGSGSGTDFTLTISSLQPEDFATYYCQQSYRLPLTFGGGTKVEIK | –
15 | – | – | – | – | 24.1 MFI ratio | CD40L-383 (antibody, V domains shown) VH: EVQLLESGGGLVQPGGSLRLSCAASGFTFSNYAMSWVRQAPGKGLEWVSAITGSGSTTYYADSVKGRFTISRDNSKNTLYLQMNSLRAEDTAVYYCARAHDYDSMLMDYWGQGTLVTVSS VL: DIQMTQSPSSLSASVGDRVTITCRASQYINNYLNWYQQKPGKAPKLLIYASSTLQRGVPSRFSGSGSGTDFTLTISSLQPEDFATYYCQQSFSTPITFGGGTKVEIK | –
16 | – | – | – | – | 18.6 MFI ratio | CD40L-419 (antibody, V domains shown) VH: EVQLLESGGGLVQPGGSLRLSCAASGFTFSNYAMSWVRQAPGKGLEWVSAITGSGSTTYYADSVKGRFTISRDNSKNTLYLQMNSLRAEDTAVYYCARAHDYDSMLMDYWGQGTLVTVSS VL: DIQMTQSPSSLSASVGDRVTITCRAGQSISSYLNWYQQKPGKAPKLLIYASSTLQRGVPSRFSGSGSGTDFTLTISSLQPEDFATYYCQQSHSVPLTFGGGTKVEIK | –
17 | – | – | – | – | 3.1 MFI ratio | CD40L-403 (antibody, V domains shown) VH: EVQLLESGGGLVQPGGSLRLSCAASGFTFRNYGMNWVRQAPGKGLEWVSSISGSGDYTYYADSVKGRFTISRDNSKNTLYLQMNSLRAEDTAVYYCARGLTYDILPRFDSWGQGTLVTVSS VL: DIQMTQSPSSLSASVGDRVTITCRASQTISPYLNWYQQKPGKAPKLLIYAASTLQAGVPSRFSSSGSGTDFTLTISSLQPEDFATYYCQQSYSLPLTFGGGTKVEIK | –
18 | 8.13 nM | 0.000124 s⁻¹ | 15300 M⁻¹ s⁻¹ | 13.9 | – | IL1RL2-23 (VHH, VHH-Fc based on IgG2 Fc) VHH: EVQLVESGGGLVQPGGSLRLSCAASGPTFSTYAMGWFRQAPGKEREFVAAISWSGANTYYADSVKGRFTISADNSKNTAYLQMNSLKPEDTAVYYCAVSQPLNYYTYYDARRYDWGQGTLVTVSS | –
19 | – | – | – | – | 3.4 MFI ratio | CD40L-416 (antibody, V domains shown) VH: EVQLLESGGGLVQPGGSLRLSCAASGFTFSNYAMSWVRQAPGKGLEWVSAISGSGHSTYYADSVKGRFTISRDNSKNTLYLQMNSLRAEDTAVYYCARGGGYYNPLLFDYWGQGTLVTVSS VL: DIQMTQSPSSLSASVGDRVTITCRASQYISTYLNWYQQKPGKAPKLLIYAASTLETGVPSRFSGSGSGTDFTLTISSLQPEDFATYYCQQSYSIPPVTFGGGTKVEIK | –
20 | 2.14 nM | 0.000194 s⁻¹ | 90800 M⁻¹ s⁻¹ | 10.2 | – | IL1RL2-30 (VHH, VHH-Fc based on IgG2 Fc) VHH: EVQLVESGGGLVQPGGSLRLSCAASGGTLRGFDIGWFRQAPGKEREFVAAVTWSGGSTNYADSVKGRFTISADNSKNTAYLQMNSLKPEDTAVYYCADVNGDWGQGTLVTVSS | –
